The source of these data is PMC8897712 (The Journal of Biological Chemistry, 2022).

Data set [1] concerns the target T1, FtsA(ΔMTS) (Escherichia coli, UniProt P0ABH0).
T1 sequence (P0ABH0 1-404): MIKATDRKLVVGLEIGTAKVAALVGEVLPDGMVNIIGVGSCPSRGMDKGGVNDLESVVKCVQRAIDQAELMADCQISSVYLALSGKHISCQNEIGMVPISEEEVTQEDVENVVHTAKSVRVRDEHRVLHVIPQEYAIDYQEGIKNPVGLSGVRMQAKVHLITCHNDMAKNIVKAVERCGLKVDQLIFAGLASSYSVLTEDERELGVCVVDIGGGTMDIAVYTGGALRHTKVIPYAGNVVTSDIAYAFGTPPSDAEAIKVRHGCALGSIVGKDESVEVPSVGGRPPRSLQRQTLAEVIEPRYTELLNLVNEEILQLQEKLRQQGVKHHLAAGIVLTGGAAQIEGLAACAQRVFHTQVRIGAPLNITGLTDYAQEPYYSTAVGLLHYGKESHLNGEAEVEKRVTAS
Conditions: 50 mM Tris-HCl pH 7.5, 150 mM KCl, 4 mM MgCl2, 23 °C, ATP 4 mM; polymerisation.

The target of data set [2] is T1, FtsA(ΔMTS). As to the kind of experiment: sedimentation of polymers. The format is biochemical. The following applies: 50 mM Tris-HCl pH 7.5, 150 mM KCl, 4 mM MgCl2, 23 °C; polymerisation.
For a further data set, the target named is T2, Escherichia coli FtsA (E. coli, UniProt P0ABH0 1-420).
T2 sequence: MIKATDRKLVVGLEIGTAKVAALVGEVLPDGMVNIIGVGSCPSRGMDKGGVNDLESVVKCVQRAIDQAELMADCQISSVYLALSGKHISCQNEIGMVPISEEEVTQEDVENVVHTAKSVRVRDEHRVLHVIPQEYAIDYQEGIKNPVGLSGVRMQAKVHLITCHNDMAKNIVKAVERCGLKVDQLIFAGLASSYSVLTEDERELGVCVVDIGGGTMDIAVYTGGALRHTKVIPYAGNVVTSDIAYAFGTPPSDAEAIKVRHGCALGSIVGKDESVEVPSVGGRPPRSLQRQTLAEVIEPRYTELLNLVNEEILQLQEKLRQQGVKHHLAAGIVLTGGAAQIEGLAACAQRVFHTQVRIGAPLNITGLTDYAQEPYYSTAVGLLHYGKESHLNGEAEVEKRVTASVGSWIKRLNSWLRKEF
Kind of data set: co-sedimentation.

For a further data set, the target named is T3, FtsA(E14R) (E. coli, UniProt P0ABH0 1-420, E14R).
T3 sequence: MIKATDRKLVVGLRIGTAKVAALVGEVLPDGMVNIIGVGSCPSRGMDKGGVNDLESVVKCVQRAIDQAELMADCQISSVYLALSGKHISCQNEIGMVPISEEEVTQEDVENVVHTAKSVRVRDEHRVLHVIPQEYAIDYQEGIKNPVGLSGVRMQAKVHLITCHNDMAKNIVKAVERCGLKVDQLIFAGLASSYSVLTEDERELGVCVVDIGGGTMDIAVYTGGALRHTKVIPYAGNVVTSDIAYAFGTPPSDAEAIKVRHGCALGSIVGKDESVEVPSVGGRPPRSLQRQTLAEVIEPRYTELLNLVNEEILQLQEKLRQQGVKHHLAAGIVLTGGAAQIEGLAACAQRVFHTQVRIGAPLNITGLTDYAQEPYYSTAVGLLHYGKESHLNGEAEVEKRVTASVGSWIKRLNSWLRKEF
Kind of data set: co-sedimentation.

Data set [3] deals with T4, FtsA(ΔMTS) (E. coli, UniProt P0ABH0 1-404).
T4 sequence: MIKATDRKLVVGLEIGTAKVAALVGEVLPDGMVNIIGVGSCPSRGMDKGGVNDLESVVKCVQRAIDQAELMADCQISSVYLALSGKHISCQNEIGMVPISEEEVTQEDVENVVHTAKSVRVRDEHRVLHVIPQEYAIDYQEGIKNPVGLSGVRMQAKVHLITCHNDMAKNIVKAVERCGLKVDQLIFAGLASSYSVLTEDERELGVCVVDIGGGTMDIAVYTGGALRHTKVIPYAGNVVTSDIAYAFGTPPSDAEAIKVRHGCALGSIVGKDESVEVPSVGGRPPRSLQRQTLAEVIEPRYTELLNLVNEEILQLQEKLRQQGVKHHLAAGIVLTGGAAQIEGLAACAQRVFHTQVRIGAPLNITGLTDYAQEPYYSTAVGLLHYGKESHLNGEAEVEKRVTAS
Kind of data set: negative-stain transmission electron microscopy.

Data set [4] deals with the molecule itself. Kind of data set: negative-stain transmission electron microscopy.
The target of data set [5] is T4, FtsA(ΔMTS). Kind of data set: bead recruitment assay.

Where two headings read alike, the source gives them in different places.

`Nc1ncnc2c1ncn2[C@@H]1O[C@H](COP(=O)(O)OP(=O)(O)OP(=O)(O)O)[C@@H](O)[C@H]1O` [ATP]: the “% FtsA(ΔMTS) in pellet” value on FtsA(ΔMTS) [1] is listed as 50.0%.

As for `Nc1ncnc2c1ncn2[C@@H]1O[C@H](COP(=O)(O)OP(=O)(O)O)[C@@H](O)[C@H]1O` [ADP], the “% FtsA(ΔMTS) in pellet” value at FtsA(ΔMTS) [2] was 22.4%.

B1: Escherichia coli FtsZ (natural protein)
chain: MFEPMELTNDAVIKVIGVGGGGGNAVEHMVRERIEGVEFFAVNTDAQALRKTAVGQTIQIGSGITKGLGAGANPEVGRNAADEDRDALRAALEGADMVFIAAGMGGGTGTGAAPVVAEVAKDLGILTVAVVTKPFNFEGKKRMAFAEQGITELSKHVDSLITIPNDKLLKVLGRGISLLDAFGAANDVLKGAVQGIAELITRPGLMNVDFADVRTVMSEMGYAMMGSGVASGEDRAEEAAEMAISSPLLEDIDLSGARGVLVNITAGFDLRLDEFETVGNTIRAFASDNATVVIGTSLDPDMNDELRVTVVATGIGMDKRPEITLVTNKQVQQPVMDRYQQHGMAPLTQEQKPVAKVVNDNAPQTAKEPDYLDIPAFLRKQAD
Turning to B1, the binding result (in the data set with Escherichia coli FtsA; with FtsA(E14R); with FtsA(ΔMTS) [3]; in data set [4]) was “binds” each time.

B2: H6-Gfp-FtsZ (natural protein)
chain: MFEPMELTNDAVIKVIGVGGGGGNAVEHMVRERIEGVEFFAVNTDAQALRKTAVGQTIQIGSGITKGLGAGANPEVGRNAADEDRDALRAALEGADMVFIAAGMGGGTGTGAAPVVAEVAKDLGILTVAVVTKPFNFEGKKRMAFAEQGITELSKHVDSLITIPNDKLLKVLGRGISLLDAFGAANDVLKGAVQGIAELITRPGLMNVDFADVRTVMSEMGYAMMGSGVASGEDRAEEAAEMAISSPLLEDIDLSGARGVLVNITAGFDLRLDEFETVGNTIRAFASDNATVVIGTSLDPDMNDELRVTVVATGIGMDKRPEITLVTNKQVQQPVMDRYQQHGMAPLTQEQKPVAKVVNDNAPQTAKEPDYLDIPAFLRKQAD
Consider B2, for which the binding result in the data set with FtsA(ΔMTS) [5] is “binds”.
